Patent US10766960 (dated 2020)
Positions count from the first letter of the chain named.

B1: H240-Kn120/H240-Hl073/L73-k0 (antibody)
chain 1: QDQLVQSGAEVKKPGASVKVSCKASGFNIKDTYIQWVRQAPGQGLEWMGRIDPLRKQTKYREKFEGRVTITADTSTNTAYMELSSLRSEDTAVYYCVRSGREFDYWGQGTLVTVSSASTKGPSVFPLAPSSKSTSGGTAALGCLVKDYFPEPVTVSWNSGALTSGVHTFPAVLQSSGLYSLSSVVTVPSSSLGTQTYICNVNHKPSNTKVDKKVEPKSCDKTHTCPPCPAPEYYWGPMVFLFPPKPKDTLMISRTPEVTCVVVDVSDEDPEVKFNWYVDGVEVHNAKTKPREEQYNATYRVVSVLTVLHQDWLNGKEYKCKVSNKDLPAPIEKTISKAKGQPREPQVCTLPPSRDELTKNQVSLWCLVKGFYPSDIAVEWESNGQPENNYKTTPPVLDSDGSFFLYSKLTVDKSRWQQGNVFSCSVMHEALHNHYTQKSLSLSP
chain 2: QDQLVQSGAEVKKPGASVKVSCKASGFNIKDTYIQWVRQAPGQGLEWMGRIDPLRKQTKYREKFEGRVTITADTSTNTAYMELSSLRSEDTAVYYCVRSGREFDYWGQGTLVTVSSASTKGPSVFPLAPSSKSTSGGTAALGCLVKDYFPEPVTVSWNSGALTSGVHTFPAVLQSSGLYSLSSVVTVPSSSLGTQTYICNVNHKPSNTKVDKKVEPKSCDKTHTCPPCPAPELLSGPSVFLFPPKPKDTLMISRTPEVTCVVVDVSHEEPEVKFNWYVDGVEVHNAKTKPREEQYNSTYRVVSVLTVLHQDWLNGKEYKCKVSNDALPKPIEETISKAKGQPREPQVYTLPPSRCELTKNQVSLSCAVKGFYPSDIAVEWESNGQPENNYKTTPPVLDSDGSFFLVSKLTVDKSRWQQGNVFSCSVMHEALHNHYTQKSLSLSP
chain 3: DIQMTQSPSSLSASVGDRVTITCRASQDIHKYIAWYQQKPGQAPRLLIQYTSTLQPGVPSRFSGSGSGTDYTFTISSLQPEDIATYYCLQYEQLRTFGGGTKVEIKRTVAAPSVFIFPPSDEQLKSGTASVVCLLNNFYPREAKVQWKVDNALQSGNSQESVTEQDSKDSTYSLSSTLTLSKADYEKHKVYACEVTHQGLSSPVTKSFNRGEC
B2: H240-Kn179/H240-Hl068/L73-k0 (antibody)
chain 1: B1 chain 1 with E293K
chain 2: B1 chain 2 with S235G
chain 3: B1 chain 3
B3: H240-Kn120/H240-Hl085/L73-k0 (antibody)
chain 1: B1 chain 1
chain 2: B1 chain 2 with S235V
chain 3: B1 chain 3
B4: H240-Kn120/H240-Hl089/L73-k0 (antibody)
chain 1: B1 chain 1
chain 2: B1 chain 2 with S235T
chain 3: B1 chain 3
B5: H240-Kn180/H240-Hl068/L73-k0 (antibody)
chain 1: B1 chain 1 with E293R
chain 2: B1 chain 2 with S235G
chain 3: B1 chain 3
B6: H240-Kn120/H240-Hl086/L73-k0 (antibody)
chain 1: B1 chain 1
chain 2: B1 chain 2 with S235I
chain 3: B1 chain 3
B7: GpH7-Kn045/GpH7-Hl048/GpL16-k0 (antibody)
chain 1: QVQLVQSGAEVKKPGASVTVSCKASGYTFTDYEMHWIRQPPGEGLEWIGAIDPKTGDTAYSESFQDRVTLTADKSTSTAYMELSSLTSEDTAVYYCTRFYSYTYWGQGTLVTVSSASTKGPSVFPLAPSSKSTSGGTAALGCLVKDYFPEPVTVSWNSGALTSGVHTFPAVLQSSGLYSLSSVVTVPSSSLGTQTYICNVNHKPSNTKVDKKVEPKSCDKTHTCPPCPAPEYYAGPSVFLFPPKPKDTLMISRTPEVTCVVVDVSDEDPEVKFNWYVDGVEVHNAKTKPREEQYNATYRVVSVLTVLHQDWLNGKEYKCKVSNKALPAPIEKTISKAKGQPREPQVCTLPPSRDELTKNQVSLWCLVKGFYPSDIAVEWESNGQPENNYKTTPPVLDSDGSFFLYSKLTVDKSRWQQGNVFSCSVMHEALHNHYTQKSLSLSP
chain 2: QVQLVQSGAEVKKPGASVTVSCKASGYTFTDYEMHWIRQPPGEGLEWIGAIDPKTGDTAYSESFQDRVTLTADKSTSTAYMELSSLTSEDTAVYYCTRFYSYTYWGQGTLVTVSSASTKGPSVFPLAPSSKSTSGGTAALGCLVKDYFPEPVTVSWNSGALTSGVHTFPAVLQSSGLYSLSSVVTVPSSSLGTQTYICNVNHKPSNTKVDKKVEPKSCDKTHTCPPCPAPELLAGPDVFLFPPKPKDTLMISRTPEVTCVVVDVSHEDPEVKFNWYVDGVEVHNAKTKPREEQYNSTYRVVSVLTVLHQDWLNGKEYKCKVSNKALPKPEEKTISKAKGQPREPQVYTLPPSRCELTKNQVSLSCAVKGFYPSDIAVEWESNGQPENNYKTTPPVLDSDGSFFLVSKLTVDKSRWQQGNVFSCSVMHEALHNHYTQKSLSLSP
chain 3: DIVMTQSPLSLPVTPGEPASISCQASESLVHSNRNTYLHWYLQKPGQSPQLLIYKVSNRFSGVPDRFSGSGSGTDFTLKISRVEAEDVGVYYCSQNTHVPPTFGQGTKVEIERTVAAPSVFIFPPSDEQLKSGTASVVCLLNNFYPREAKVQWKVDNALQSGNSQESVTEQDSKDSTYSLSSTLTLSKADYEKHKVYACEVTHQGLSSPVTKSFNRGEC
B8: GpH7-G1d/GpL16-k0 (antibody)
chain 1: not shown
chain 2: B7 chain 3
B9: GpH7-TA7/GpH7-TA45/GpL16-k0 (antibody)
chain 1: B7 chain 1 with Y233L, A234W, D266H, C347Y, D354K, W364T, H433R
chain 2: B7 chain 1 with Y233L, A234W, D266H, C347Y, W364T, K437E
chain 3: B7 chain 3

Biological target: T1, FcgRIIIa V (human, UniProt P08637)
Experiment: SPR

T1 sequence (P08637 17-208 F176V): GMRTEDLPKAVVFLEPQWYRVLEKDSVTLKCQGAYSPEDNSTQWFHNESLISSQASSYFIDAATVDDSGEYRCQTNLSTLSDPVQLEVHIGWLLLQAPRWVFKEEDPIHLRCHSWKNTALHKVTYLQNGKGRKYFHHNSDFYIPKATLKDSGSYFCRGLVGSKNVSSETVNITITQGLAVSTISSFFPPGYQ

Row | Binder | Kd [nM]
1 | B1 | 1.8
2 | B2 | 0.98
3 | B3 | 6.2
4 | B4 | 5.4
5 | B5 | 0.67
6 | B6 | 14

Biological target: T2, FcgRIIa H (human, UniProt P12318)
T2 chain: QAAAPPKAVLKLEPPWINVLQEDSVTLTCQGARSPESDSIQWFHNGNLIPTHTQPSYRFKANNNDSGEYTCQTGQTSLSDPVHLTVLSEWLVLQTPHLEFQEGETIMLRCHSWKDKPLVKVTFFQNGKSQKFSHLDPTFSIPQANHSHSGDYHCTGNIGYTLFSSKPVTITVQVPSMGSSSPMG
Experiment: SPR

Row | Binder | Kd [nM]
7 | B7 | 11

Biological target: T3, FcgRIIIa F (human, UniProt P08637)
Experiment: SPR

T3 sequence (P08637 17-208): as the sequence (P08637 17-208 F176V) above, with V160F counted along it

Row | Binder | Kd [nM]
8 | B8 | 1200
9 | B9 | 3300

Biological target: T4, FcgRIIb (human, UniProt P31994)
T4 chain: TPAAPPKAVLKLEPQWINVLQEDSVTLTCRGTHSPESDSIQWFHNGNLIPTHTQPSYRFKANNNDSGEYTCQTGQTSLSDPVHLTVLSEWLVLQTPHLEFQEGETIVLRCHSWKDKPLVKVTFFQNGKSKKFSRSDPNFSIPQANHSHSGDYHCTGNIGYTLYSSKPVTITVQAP
Experiment: SPR

Row | Binder | Kd [nM]
10 | B1 | 210
11 | B2 | 260
12 | B3 | 390
13 | B4 | 190
14 | B5 | 240
15 | B6 | 480

Biological target: T4, FcgRIIb
Experiment: SPR
Remark: another data set of the same source

Row | Binder | Kd [nM]
16 | B7 | 110

Biological target: T2, FcgRIIa H
Experiment: SPR
Remark: another data set of the same source

Row | Binder | Kd [nM]
17 | B1 | 21
18 | B2 | 41
19 | B3 | 46
20 | B4 | 41
21 | B5 | 33
22 | B6 | 53

Biological target: T1, FcgRIIIa V
Experiment: SPR
Remark: another data set of the same source

Row | Binder | Kd [nM]
23 | B7 | 1.3

Biological target: T3, FcgRIIIa F
Experiment: SPR
Remark: another data set of the same source

Row | Binder | Kd [nM]
24 | B7 | 3.7

Biological target: T5, FcgRIIa R (human, UniProt P12318)
T5 chain: T2 chain with H134R
Experiment: SPR

Row | Binder | Kd [nM]
25 | B7 | 4.8

Biological target: T4, FcgRIIb
Experiment: SPR
Remark: another data set of the same source

Row | Binder | Kd [nM]
26 | B8 | 3100
27 | B9 | 18000

Biological target: T5, FcgRIIa R
Experiment: SPR
Remark: another data set of the same source

Row | Binder | Kd [nM]
28 | B1 | 15
29 | B2 | 26
30 | B3 | 19
31 | B4 | 14
32 | B5 | 21
33 | B6 | 22

Biological target: T6, FcgRIa (human, UniProt P12314)
T6 chain: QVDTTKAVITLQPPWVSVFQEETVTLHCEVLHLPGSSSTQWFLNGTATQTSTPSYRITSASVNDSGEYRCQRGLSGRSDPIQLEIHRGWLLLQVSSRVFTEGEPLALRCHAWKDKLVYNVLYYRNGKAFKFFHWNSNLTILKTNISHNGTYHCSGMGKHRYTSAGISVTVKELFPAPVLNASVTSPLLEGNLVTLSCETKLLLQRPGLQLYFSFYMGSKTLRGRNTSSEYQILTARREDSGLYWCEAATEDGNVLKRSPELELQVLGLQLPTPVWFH
Experiment: SPR

Row | Binder | Kd [nM]
34 | B1 | < 0.028
35 | B2 | 0.3
36 | B3 | 87
37 | B4 | 0.18
38 | B5 | 0.3
39 | B6 | 1.4

Biological target: T3, FcgRIIIa F
Experiment: SPR
Remark: another data set of the same source

Row | Binder | Kd [nM]
40 | B1 | 8.2
41 | B2 | 4.8
42 | B3 | 23
43 | B4 | 12
44 | B5 | 3.1
45 | B6 | 33

Biological target: T6, FcgRIa
Experiment: SPR
Remark: another data set of the same source

Row | Binder | Kd [nM]
46 | B7 | 0.019
